Assay results reported in patent US20050181059A1, “Nanoparticulate therapeutic biologically active agents” (Spherics, Inc., priority 2003, published 2005).

Key:
[1] = in vivo
Method: In a separate study, the bioavailability for non-encapsulated insulin was tested.

[2] = SDS-PAGE stability following micronization; format: physicochemical; conditions: denaturing, non-reducing; resolubilized in 10 mM PBS
[3] = BCA analysis of protein concentration of redissolved hIL-12; format: physicochemical; conditions: BCA assay, resolubilized in 10 mM PBS
Method: Recombinant Human Interleukin-12 (hIL-112) was obtained from Genetics Institute and tBA from EM Science. hIL-12 (500 microliters at 2.79 mg/ml) was injected into tBA (5 ml). A fine precipitate formed immediately. The dispersion was rapidly frozen in liquid nitrogen (15 minutes) and the solvent removed by lyophilization for 48 hours. The resulting powder was visualized by SEM. The stability following micronization was assayed by SDS-PAGE (Invitrogen) and BCA (Pierce) assay of hIL-12 resolubilized in 10 mM PBS according to manufacturer's instructions.
SDS-PAGE (denaturing, non-reducing) analysis was used to compare tBA-treated hIL-12 particles with the control stock, with and without lyophilization. […] This was confirmed by […] acid (BCA) analysis of protein concentration of hIL-12 redissolved after lyophilization alone, or after micronization followed by lyophilization. The lyophilized-only protein was 99% soluble, while the micronized protein was 71% soluble. Thus a disagreggating agent should be included to prevent aggregation when micronizing hIL-12 using tBA.

Substance: Non-encapsulated insulin: non-encapsulated insulin tested for bioavailability in a separate study
- bioavailability [1]: less than 1%

Substance: lyophilized-only hIL-12: hIL-12 control stock redissolved after lyophilization alone
- aggregation by SDS-PAGE [2]: did not produce irreversible aggregation
- soluble protein after redissolving [3]: 99%

Substance: micronized hIL-12: Recombinant Human Interleukin-12 injected into tBA, frozen and lyophilized
- aggregation by SDS-PAGE [2]: irreversibly denatured and aggregated into dimers, trimers, and aggregates too large to enter the gel
- soluble protein after redissolving [3]: 71%
